Measurements published in patent publication US20220396825A1, “METHOD FOR PREPARING […]” (KAO CORPORATION, priority 2019, published 2022).

System: fragments of sample DNA (genomic DNA of TA100 strain)
Experiment: Error reduction by single-strand-specific nuclease treatment of DNA fragments (DMSO-exposed library)
Type: biochemical, Salmonella typhimurium
Description: From DNA derived from the DMSO-exposed cells or the 3-MC-exposed cells, a plurality of samples each of which was to give 60 ng or 100 ng of DNA were prepared, and the samples were each fragmented into pieces having a length of approximately 350 bp on average by using a DNA Shearing System ME220. The fragments of each sample were divided into two groups. For the group without nuclease treatment (nontreatment group), the DNA fragments were suspended in Resuspension buffer attached to the TruSeq for End Repair in the subsequent step in accordance with the recommended protocol to afford 60 μL of eluate. For the group with nuclease treatment (treatment group), the DNA fragments were purified through steps of adsorbing on Sample Purification Beads attached to the TruSeq (hereinafter, also expressed as beads, simply), washing twice with 80% ethanol water, and drying in accordance with the recommended protocol. In the subsequent elution operation, the beads were suspended in distilled water (DW, produced by NIPPON GENE CO., LTD.) to afford 30 μL of DNA eluate containing DNA fragments.
S1 nuclease (Promega Corporation, catalog No.: M5761), Mung Bean Nuclease (MBN) (Takara Bio Inc., catalog No.: 2420A), or RecJf (New England Biolabs, catalog No.: M0264L) was used as the single-strand-specific nuclease. The activity values (numbers of units) of the enzymes were defined as follows. • S1 nuclease: an enzymatic activity such that 1 μg of acid-soluble substance is generated per minute at 37° C. in a mixed solution of 30 mM sodium acetate (pH 4.6, 25° C.), 50 mM NaCl, 1 mM ZnCl2, 5% glycerol, and 0.5 mg/mL denatured calf thymus DNA was defined as 1 U. • MBN: an enzymatic activity such that 1 μg of acid-soluble decomposition product is generated per minute at 37° C. and pH 5.0 with thermally denatured calf thymus DNA as a substrate was defined as 1 U. • RecJf: an amount of the enzyme necessary for generating 0.5 ng of deoxyribonucleotide soluble in trichloroacetic acid per minute at 37° C. in 50 μL of whole reaction solution (containing 1×NE Buffer 2 and 1.5 μg of sonicated [^3H]-labeled single-stranded E. coli DNA) was defined as 1 U.
To the DNA eluate obtained in I), 4 μL of 10× Reaction Buffer attached to the S1 nuclease was added. The S1 nuclease was appropriately diluted with 1× Reaction Buffer, 1, 3, 10, 30, 100, or 300 U thereof was added to the DNA eluate, and DW was added thereto to a total volume of 40 μL. For the sample to which 1000 U of the S1 nuclease was to be added, 4.6 μL of 10× Reaction Buffer was added to 30 μL of the DNA eluate obtained by beads purification, and 12 μL of the stock solution of the S1 nuclease was added thereto to a total volume of 46 μL. Each reaction solution with the S1 nuclease was incubated at 30° C. for 30 minutes. Assuming that the whole amount of DNA (60 ng) present at the beginning of library preparation existed in each reaction solution, the numbers of units of the S1 nuclease per 1 ng of DNA were 0.02, 0.05, 0.17, 0.50, 1.67, 5.00, and 16.7 U/ng. For inactivation of the S1 nuclease in each reaction solution, 3 μL of 0.5 M EDTA (pH 8.0) (produced by NIPPON GENE CO., LTD.) was added, and the resultant was incubated at 70° C. for 10 minutes. To purify DNA from the inactivated reaction solution, beads attached to the TruSeq in an amount equal to that of the reaction solution were added and a purification operation was carried out in accordance with the recommended protocol, and the resultant was suspended in Resuspension buffer attached to the TruSeq to afford 60 μL of eluate (S1 nuclease treatment group). […]
To the DNA eluate obtained in I), 5 μL of 10×NE Buffer 2 attached to the RecJf was added. The RecJf was appropriately diluted with 1×NE Buffer 2, and 3, 10, 30, or 100 units thereof was added to the DNA eluate to a total volume of 50 μL. Each reaction solution with the RecJf was stirred, and incubated at 37° C. for 60 minutes. […]

B1: S1 nuclease: single-strand-specific endonuclease (Promega Corporation, catalog No.: M5761) (protein, UniProt P24021 21-287, looked up)
Nuclease S1: WGNLGHETVAYIAQSFVASSTESFCQNILGDDSTSYLANVATWADTYKYTDAGEFSKPYHFIDAQDNPPQSCGVDYDRDCGSAGCSISAIQNYTNILLESPNGSEALNALKFVVHIIGDIHQPLHDENLEAGGNGIDVTYDGETTNLHHIWDTNMPEEAAGGYSLSVAKTYADLLTERIKTGTYSSKKDSWTDGIDIKDPVSTSMIWAADANTYVCSTVLDDGLAYINSTDLSGEYYDKSQPVFEELIAKAGYRLAAWLDLIASQPS
S1 nuclease 0.02 U/ng
  Error reduction rate, GC to CG: 30.4%
S1 nuclease 0.02 U/ng DNA in reaction solution
  Error reduction rate, GC to TA: 52.8%
S1 nuclease 0.05 U/ng
  Error reduction rate, GC to CG: 50.6%
  Error reduction rate, GC to TA: 35.3%
S1 nuclease 0.17 U/ng
  Error reduction rate, GC to CG: 84.9%
  Error reduction rate, GC to TA: 83.1%
S1 nuclease 0.50 U/ng
  Error reduction rate, GC to CG: 87.5%
  Error reduction rate, GC to TA: 69.9%
S1 nuclease 1.67 U/ng
  Error reduction rate, GC to CG: 86.0%
  Error reduction rate, GC to TA: 81.7%
S1 nuclease 5.00 U/ng
  Error reduction rate, GC to CG: 98.3%
  Error reduction rate, GC to TA: 84.5%
S1 nuclease 16.7 U/ng
  Error reduction rate, GC to CG: 98.1%
  Error reduction rate, GC to TA: 79.6%
